Where two headings read alike, the source gives them in different places.
T1: human IL-23 (human, UniProt P29460 23-328; Q9NPF7 20-189)
T1 construct: Recombinant (Ebioscience); HIS-tagged in flow cytometry, biotinylated in some assays; also called hIL-23; rhIL-23
T1 sequence 1: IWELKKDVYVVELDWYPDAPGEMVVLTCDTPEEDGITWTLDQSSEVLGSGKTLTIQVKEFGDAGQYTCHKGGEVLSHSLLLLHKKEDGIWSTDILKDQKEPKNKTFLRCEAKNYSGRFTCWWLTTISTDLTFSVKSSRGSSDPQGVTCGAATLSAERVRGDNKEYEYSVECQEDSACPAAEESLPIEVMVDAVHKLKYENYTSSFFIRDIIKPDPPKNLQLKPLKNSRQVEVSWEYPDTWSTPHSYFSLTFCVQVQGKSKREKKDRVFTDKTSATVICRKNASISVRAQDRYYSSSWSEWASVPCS
T1 sequence 2: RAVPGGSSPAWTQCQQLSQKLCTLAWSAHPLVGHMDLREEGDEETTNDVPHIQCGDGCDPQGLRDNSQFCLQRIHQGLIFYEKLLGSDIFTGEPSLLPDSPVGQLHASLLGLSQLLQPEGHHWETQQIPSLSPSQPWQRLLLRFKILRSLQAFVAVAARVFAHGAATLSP

T2: human IL-12 (human, UniProt P29460 23-328; P29459 23-219)
T2 construct: Recombinant (Peprotech); FLAG-tagged IL-12 in the flow cytometry assays, biotinylated in the IL-12Rβ2 assay; also called hIL-12
T2 sequence 1: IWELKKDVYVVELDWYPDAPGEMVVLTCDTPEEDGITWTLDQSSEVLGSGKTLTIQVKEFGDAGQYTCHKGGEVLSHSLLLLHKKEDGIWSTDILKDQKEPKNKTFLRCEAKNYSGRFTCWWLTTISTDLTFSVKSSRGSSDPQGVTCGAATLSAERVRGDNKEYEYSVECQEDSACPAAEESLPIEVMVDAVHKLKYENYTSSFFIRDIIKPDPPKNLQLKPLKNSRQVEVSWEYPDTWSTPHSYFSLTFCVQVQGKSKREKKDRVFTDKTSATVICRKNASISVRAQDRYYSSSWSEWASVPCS
T2 sequence 2: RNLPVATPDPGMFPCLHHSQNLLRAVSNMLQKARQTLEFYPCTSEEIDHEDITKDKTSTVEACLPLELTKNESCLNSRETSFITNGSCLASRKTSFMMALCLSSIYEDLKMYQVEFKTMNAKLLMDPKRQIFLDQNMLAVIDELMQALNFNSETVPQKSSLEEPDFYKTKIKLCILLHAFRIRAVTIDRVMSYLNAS

B1: Antibody 76 (antibody, human IgG1, kappa, V domains shown)
VH: EVQLVQSGAEVKKPGATVKISCKVSGYTFTDYYLHWVQQAPGKGLEWMGWIDPENGDTEYAPKFQGRVTITADTSTDTAYMELSSLRSEDTAVYYCNANKELRYFDVWGQGTMVTVSS
VL: EIVLTQSPATLSLSPGERATLSCRASQSISINLHWYQQKPGQAPRLLIYFASQSISGIPARFSGSGSGTDFTLTISSLEPEDFAVYYCQQSNSFPLTFGGGTKVEIKR
B2: Antibody 77 (antibody, human IgG1, kappa, V domains shown)
VH: QVQLVQSGAEVKKPGASVKVSCKASGYTFTDYYLHWVRQAPGQGLEWMGWIDPENGDTEYAPKFQGRVTMTTDTSTSTAYMELRSLRSDDTAVYYCNANKELRYFDVWGQGTMVTVSS
VL: EIVLTQSPATLSLSPGERATLSCRASQSISINLHWYQQKPGQAPRLLIYFASQSISGIPARFSGSGSGTDFTLTISSLEPEDFAVYYCQQSNSFPLTFGGGTKVEIKR
B3: Antibody 79 (antibody, human IgG1, kappa, V domains shown)
VH: EVQLVQSGAEVKKPGATVKISCKVSGYTFTDYYLHWVQQAPGKGLEWMGWIDPENGDTEYAPKFQGRVTITADTSTDTAYMELSSLRSEDTAVYYCNANKELRYFDVWGQGTMVTVSS
VL: EIVMTQSPATLSVSPGERATLSCRASQSISINLHWYQQKPGQAPRLLIYFASQSISGIPARFSGSGSGTEFTLTISSLQSEDFAVYYCQQSNSFPLTFGGGTKVEIKR
B4: Antibody 81 (antibody, human IgG1, kappa, V domains shown)
VH: QVQLVQSGAEVKKPGASVKVSCKVSGYTLTDYYLHWVRQAPGKGLEWMGWIDPENGDTEYAPKFQGRVTMTEDTSTDTAYMELSSLRSEDTAVYYCATNKELRYFDVWGQGTMVTVSS
VL: EIVMTQSPATLSVSPGERATLSCRASQSISINLHWYQQKPGQAPRLLIYFASQSISGIPARFSGSGSGTEFTLTISSLQSEDFAVYYCQQSNSFPLTFGGGTKVEIKR
B5: Antibody 184 (antibody, human IgG1, kappa, V domains shown)
VH: QVQLVQSGAEVKKPGASVKVSCKASGYTFTDYYLHWVRQAPGQGLEWMGWIDPENGDTEHAPKFQGRVTMTTDTSTSTAYMELRSLRSDDTAVYYCNANKELRYFDVWGQGTMVTVSS
VL: EIVMTQSPATLSVSPGERATLSCRASQSISINLHWYQQKPGQAPRLLIYFASQSISGIPARFSGSGSGTEFTLTISSLQSEDFAVYYCQQSNSFPLTFGGGTKVEIKR
notes: also called CP-A6 as IgG
B6: Antibody 207 (antibody, human IgG1, kappa, V domains shown)
VH: QVQLVQSGAEVKKPGASVKVSCKASGYTFTDYYLHWVRQAPGQGLEWMGWIDPENGDTESAPKFQGRVTMTTDTSTSTAYMELRSLRSDDTAVYYCNANKELRYFDVWGQGTMVTVSS
VL: EIVMTQSPATLSVSPGERATLSCRASQSISINLHWYQQKPGQAPRLLIYFASQSISGIPARFSGSGSGTEFTLTISSLQSEDFAVYYCQQSNSFPLTFGGGTKVEIKR
notes: also called AW-F2 as IgG
B7: Antibody 52 (antibody, human IgG1, kappa, V domains shown)
VH: EVQLVQSGAEVKKPGATVKISCKASGYTFSDYYLHWVRQRPGKGLEWMGWIDPENGDTEYAPKFQGRVTITADTSTDTGYLELSSLRSEDTAVYYCAANKELRYFDVWGQGTLVTVSS
VL: DIQMTQSPSSVSASVGDRVTITCRASQSISINLHWYQQKPGKAPKLLIYFASQSISGVPSRFSGSGSGTDFSLTINSLQPEDFATYYCQQSNSFPLTFGGGTKVEIKR
B8: Antibody 54 (antibody, human IgG1, kappa, V domains shown)
VH: EVQLVQSGAEVKKPGATVKISCKASGYTFSDYYLHWVRQAPGKGLEWMGWIDPENGDTEYAPKFQGKVTITADTSTDTGYLELSSLRSEDTAVYYCAANKELRYFDVWGQGTLVTVSS
VL: DIQMTQSPSSVSASVGDRVTITCRASQSISINLHWYQQKPGKAPKLLIYFASQSISGVPSRFSGSGSGTDFSLTINSLQPEDFATYYCQQSNSFPLTFGGGTKVEIKR
B9: Antibody 55 (antibody, human IgG1, kappa, V domains shown)
VH: EVQLVQSGAEVKKPGATVKISCKASGYTFSDYYLHWVRQRPEKGLEWMGWIDPENGDTEYAPKFQGKVTITADTSTDTGYLELSSLRSEDTAVYYCAANKELRYFDVWGQGTLVTVSS
VL: DIQMTQSPSSVSASVGDRVTITCRASQSISINLHWYQQKPGKAPKLLIYFASQSISGVPSRFSGSGSGTDFSLTINSLQPEDFATYYCQQSNSFPLTFGGGTKVEIKR
B10: Antibody 56 (antibody, human IgG1, kappa, V domains shown)
VH: EVQLVQSGAEVKKPGATVKISCKASGYTFSDYYLHWVRQAPGKGLEWMGWIDPENGDTEYAPKFQGRVTITADTSTDTGYLELSSLRSEDTAVYYCAANKELRYFDVWGQGTLVTVSS
VL: DIQMTQSPSSVSASVGDRVTITCRASQSISINLHWYQQKPGKAPKLLIKFASQSISGVPSRFSGSGSGTDFSLTINSLQPEDFATYYCQQSNSFPLTFGGGTKVEIKR
B11: Antibody 57 (antibody, human IgG1, kappa, V domains shown)
VH: EVQLVQSGAEVKKPGATVKISCKASGYTFSDYYLHWVRQRPGKGLEWMGWIDPENGDTEYAPKFQGRVTITADTSTDTGYLELSSLRSEDTAVYYCAANKELRYFDVWGQGTLVTVSS
VL: DIQMTQSPSSVSASVGDRVTITCRASQSISINLHWYQQKPGKAPKLLIKFASQSISGVPSRFSGSGSGTDFSLTINSLQPEDFATYYCQQSNSFPLTFGGGTKVEIKR
B12: Antibody 58 (antibody, human IgG1, kappa, V domains shown)
VH: EVQLVQSGAEVKKPGATVKISCKASGYTFSDYYLHWVRQAPEKGLEWMGWIDPENGDTEYAPKFQGRVTITADTSTDTGYLELSSLRSEDTAVYYCAANKELRYFDVWGQGTLVTVSS
VL: DIQMTQSPSSVSASVGDRVTITCRASQSISINLHWYQQKPGKAPKLLIKFASQSISGVPSRFSGSGSGTDFSLTINSLQPEDFATYYCQQSNSFPLTFGGGTKVEIKR
B13: Antibody 59 (antibody, human IgG1, kappa, V domains shown)
VH: EVQLVQSGAEVKKPGATVKISCKASGYTFSDYYLHWVRQAPGKGLEWMGWIDPENGDTEYAPKFQGKVTITADTSTDTGYLELSSLRSEDTAVYYCAANKELRYFDVWGQGTLVTVSS
VL: DIQMTQSPSSVSASVGDRVTITCRASQSISINLHWYQQKPGKAPKLLIKFASQSISGVPSRFSGSGSGTDFSLTINSLQPEDFATYYCQQSNSFPLTFGGGTKVEIKR

Key:
human IL-23 [1] = target: T1, human IL-23; experiment: ELISA, coated IL-23
Procedure, shortened: (§1)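 Each value is an absorbance measuring binding. Plates (Maxisorp) carried cytokine coated at 1 μg/mL in carbonate buffer pH 9.6 overnight at 4° C, were blocked with 1% BSA in PBS for 1 hour at 25° C, and received antibody titrations for 1 hour at 25° C. Detection used goat anti-human IgG or anti-murine immunoglobulin HRP at 1:2000 for 1 hour, then TMB stopped with 1M HCl, with absorbance taken at 450 nm (reference 620 nm).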

human IL-12 [2] = target: T2, human IL-12; experiment: ELISA, coated IL-12
Procedure, shortened: as §1

human IL-23 [3] = target: T1, human IL-23; experiment: SPR, IgG
Experimental: (§2) CU-A6 was converted to Antibody 183, CP-A6 was converted to Antibody 184 and AW-F2 was converted to Antibody 207 by addition of a human heavy chain Fc region (SEQ ID NO: 8) and a constant kappa light chain region (SEQ ID NO: 9). IgG molecules were expressed by co-transfecting the heavy and light chain construct for each antibody into HEK 293E cultures. The expressed IgGs were purified by affinity chromatography and gel exclusion and the resulting monomeric molecules were tested for IL-12 and IL-23 binding by SPR (TABLE 6). All three IgG variants retained binding activity against both analytes with a visible improvement in kd compared to the parental wild-type IgG. Based on this, it is reasonable to expect that scFv variants described in TABLE 4 could be converted to the IgG format and retain improved binding characteristics against IL-12 and IL-23.
(§3) Using a SPR 3000, Protein A was immobilized onto FC1 and FC2 (or alternatively FC3 and FC4) of a CM5 research grade sensor chip using amine coupling, giving approximately […] RU. FC1 was used a blank throughout the experiments. The experiments were run in HBS-P buffer (SPR). At a flow rate of 20 μl/min, 20 μl of 5 μg/mL of antibody was passed over FC2. IL-12, IL-23 or IL-12p40 (Peprotech) were passed over the surface of FC1 and FC2 at concentrations ranging from 66 nM to 2 nM. Regeneration of the surface was performed using 10 mM Glycine, pH 1.0. The sensorgram data from FC2 was subtracted from FC1 and a buffer only control. The curves were fitted using a 1:1 Langmuir equation to generate the kd, ka and KD values. All curves were fitted with a χ² of less then 2.0 where possible.

human IL-12 [4] = target: T2, human IL-12; experiment: SPR, IgG
Experimental: as §2, §3

human IL-23 [5] = target: T1, human IL-23; experiment: ELISA, coated IL-23; remark: listed apart in the source
Procedure, shortened: as §1

human IL-12 [6] = target: T2, human IL-12; experiment: ELISA, coated IL-12; remark: listed apart in the source
Procedure, shortened: as §1

Row | Binder | binding result (human IL-23 [1]) | binding result (human IL-12 [2]) | binding result (human IL-23 [5]) | binding result (human IL-12 [6]) | further results
1 | B1 | binds | binds | – | – | –
2 | B2 | binds | binds | – | – | –
3 | B3 | binds | binds | – | – | –
4 | B4 | binds | binds | – | – | –
5 | B5 | – | – | – | – | Kd (human IL-23 [3]): 0.104 nM; koff (human IL-23 [3]): 4.2e-05 s⁻¹; kon (human IL-23 [3]): 410000 M⁻¹ s⁻¹; Kd (human IL-12 [4]): 0.127 nM; koff (human IL-12 [4]): 0.00054 s⁻¹; kon (human IL-12 [4]): 4.2e+06 M⁻¹ s⁻¹
6 | B6 | – | – | – | – | Kd (human IL-23 [3]): 0.176 nM; koff (human IL-23 [3]): 6.5e-05 s⁻¹; kon (human IL-23 [3]): 370000 M⁻¹ s⁻¹; Kd (human IL-12 [4]): 0.167 nM; koff (human IL-12 [4]): 0.00063 s⁻¹; kon (human IL-12 [4]): 3.7e+06 M⁻¹ s⁻¹
7 | B7 | – | – | binds | binds | –
8 | B8 | – | – | binds | binds | –
9 | B9 | – | – | binds | binds | –
10 | B10 | – | – | binds | binds | –
11 | B11 | – | – | binds | binds | –
12 | B12 | – | – | binds | binds | –
13 | B13 | – | – | binds | binds | –

From patent US20110262445A1 (CEPHALON AUSTRALIA, published 2011)
